{"source": "paper PMC2442654", "about": "(PLoS ONE, 2008)", "biological_target": "the molecule itself", "experiment": "thioflavin T fluorescence + AFM (de novo amyloid fibril formation)", "data": [{"protein": "recombinant mouse full-length prion protein, MoPrP (23-231), unexposed (natural protein) not shown", "values": [{"measurement": "binding result", "result": "binds"}]}]}
